{"source": "paper PMC5972581", "about": "(2018)", "binders": {"B1": {"name": "Trx-OsMORF8-His (protein)", "chain": "MASASRFLLLSRLPAAAASSTSRLLRPLSAAGSLLPAALAPSAPRAAAAAARCFATQPATSSLRDSSPNWSNRPPKETILLDGCDFEHWLVVVEPPPGDPSNPEPTRDEIIDGYIKTLAQVVGSEEEARHKIYSVSTRHYFAFGALVSEELSYKLKELPKVRWVLPDSYLDVRNKDYGGEPFINGEAVPYDPKYHEEWVRNNARANERSRRNDRPRNFDRSRNFERRRENMQNFQNRDVPPGQGFNSPPPPGQGPVPPRDAPPMHHAQGNVPPPPPPNAGPPNYQPHAPNPQGYTNYQQGGAPGYQGGPPGYQGSNQGYQGPPPPPPSAYQGNNPGYQGGGPGYQGGNPPPYQGGNPGYAPGYHGQGGNPSYQQGGDNYNAGVPAYERDGQGRNYQ"}, "B2": {"name": "Trx-OsMORF9-His (protein)", "chain": "MASFPTTAAAAAAQAFAFALAPKPSSSAAAPSALFPRTAAAAAFPTLAVRGSGKARQPVVAAAAGAGTGSEQRETILLPGCDYNHWLIVMEFPKDPAPTREQMIDTYLNTLATVLGSMEEAKKNMYAFSTTTYTGFQCTVDEETSEKFKGLPGVLWVLPDSYIDVKNKDYGGDKYINGEIIPCTYPTYQPKERRTSKYESRRYERRRDGPPASRRPRPQTAQPESASSS"}}, "target": "T1, GST-OsPGL1^46-604 (rice (Oryza sativa), UniProt B7EDM4)", "T1 chain": "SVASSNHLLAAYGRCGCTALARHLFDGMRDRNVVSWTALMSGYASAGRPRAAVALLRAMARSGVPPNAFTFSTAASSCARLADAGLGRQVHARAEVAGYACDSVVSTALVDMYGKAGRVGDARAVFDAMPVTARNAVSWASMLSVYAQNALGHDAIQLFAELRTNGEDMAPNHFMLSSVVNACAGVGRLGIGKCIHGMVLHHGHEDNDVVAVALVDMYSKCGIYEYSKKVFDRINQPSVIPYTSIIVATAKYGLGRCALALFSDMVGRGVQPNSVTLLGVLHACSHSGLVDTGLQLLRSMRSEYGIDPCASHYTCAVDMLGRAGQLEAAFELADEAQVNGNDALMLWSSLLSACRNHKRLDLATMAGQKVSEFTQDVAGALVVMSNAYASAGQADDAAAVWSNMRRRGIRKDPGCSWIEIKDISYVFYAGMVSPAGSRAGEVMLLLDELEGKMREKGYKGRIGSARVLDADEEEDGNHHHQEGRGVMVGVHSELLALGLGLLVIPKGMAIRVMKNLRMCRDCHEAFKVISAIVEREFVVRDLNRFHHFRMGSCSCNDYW", "assay": "GST pull-down", "data": [{"binder": "B1", "values": [{"measurement": "binding result", "result": "binds"}]}, {"binder": "B2", "values": [{"measurement": "binding result", "result": "binds"}]}]}
